Target: plasminogen (UniProt P00747)
Chain of UniProt P00747 (P00747 20-810): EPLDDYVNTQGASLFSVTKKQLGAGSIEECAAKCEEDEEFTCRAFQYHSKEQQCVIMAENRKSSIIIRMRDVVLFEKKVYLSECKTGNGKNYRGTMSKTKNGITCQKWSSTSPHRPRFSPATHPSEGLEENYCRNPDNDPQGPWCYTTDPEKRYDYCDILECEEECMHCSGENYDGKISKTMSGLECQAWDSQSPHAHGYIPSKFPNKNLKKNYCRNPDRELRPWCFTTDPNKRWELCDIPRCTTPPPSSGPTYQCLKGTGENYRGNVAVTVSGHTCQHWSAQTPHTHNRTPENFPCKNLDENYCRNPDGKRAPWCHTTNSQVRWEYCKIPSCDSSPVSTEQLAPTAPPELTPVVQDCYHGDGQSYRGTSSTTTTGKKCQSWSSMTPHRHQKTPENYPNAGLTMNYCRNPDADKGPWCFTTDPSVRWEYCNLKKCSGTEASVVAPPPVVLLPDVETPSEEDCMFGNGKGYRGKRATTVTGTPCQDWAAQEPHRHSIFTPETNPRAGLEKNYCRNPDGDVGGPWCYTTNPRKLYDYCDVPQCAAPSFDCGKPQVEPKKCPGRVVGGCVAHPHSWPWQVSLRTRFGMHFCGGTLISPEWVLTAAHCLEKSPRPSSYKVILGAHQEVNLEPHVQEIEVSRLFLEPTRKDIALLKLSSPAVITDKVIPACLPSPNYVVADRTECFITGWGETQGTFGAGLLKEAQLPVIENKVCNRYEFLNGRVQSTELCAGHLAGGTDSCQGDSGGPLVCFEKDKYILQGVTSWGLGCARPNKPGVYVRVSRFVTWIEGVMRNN

Question: How did the fibrin plate assay, diameter of halo pattern (5.0 x 10^3 IU unmodified Sak, 310 K, 20 h) turn out when “wild-type staphylokinase (Sak) (natural protein)” was run?
Answer: The fibrin plate assay, diameter of halo pattern (5.0 x 10^3 IU unmodified Sak, 310 K, 20 h) was 25.4 mm.

Source: article PMC5686944
